B1: Periplasmic serine endoprotease DegP (Escherichia coli (strain K12)), P0C0V0 (parent)
chain: MKKTTLALSALALSLGLALSPLSATAAETSSATTAQQMPSLAPMLEKVMPSVVSINVEGSTTVNTPRMPRNFQQFFGDDSPFCQEGSPFQSSPFCQGGQGGNGGGQQQKFMALGSGVIIDADKGYVVTNNHVVDNATVIKVQLSDGRKFDAKMVGKDPRSDIALIQIQNPKNLTAIKMADSDALRVGDYTVAIGNPFGLGETVTSGIVSALGRSGLNAENYENFIQTDAAINRGNSGGALVNLNGELIGINTAILAPDGGNIGIGFAIPSNMVKNLTSQMVEYGQVKRGELGIMGTELNSELAKAMKVDAQRGAFVSQVLPNSSAAKAGIKAGDVITSLNGKPISSFAALRAQVGTMPVGSKLTLGLLRDGKQVNVNLELQQSSQNQVDSSSIFNGIEGAEMSNKGKDQGVVVNNVKTGTPAAQIGLKKGDVIIGANQQAVKNIAELRKVLDSKPSVLALNIQRGDSTIYLLMQ
partner: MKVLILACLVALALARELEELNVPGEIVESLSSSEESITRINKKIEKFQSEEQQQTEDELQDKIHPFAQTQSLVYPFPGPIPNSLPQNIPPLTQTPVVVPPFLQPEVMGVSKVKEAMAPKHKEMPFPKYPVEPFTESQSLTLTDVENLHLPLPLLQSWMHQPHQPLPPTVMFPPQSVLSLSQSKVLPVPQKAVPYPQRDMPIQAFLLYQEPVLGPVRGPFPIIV

Variants of: B1
Details: with casb_bovin CSN2, P02666

Variant	effect of a mutation on the interaction
R351A;Q353A	disrupting interaction
L291W	disrupting interaction

Variants of: B1
Details: with casb_bovin CSN2, P02666
Remark: another data set of the same source

Variant	effect of a mutation on the interaction
R351A;Q353A	decreasing interaction
R213A	disrupting interaction
